From PMC5435866

What was measured:
Test in all cases: EMSA
Drosophila SLBP ER = target: T1, Drosophila SLBP ER (UniProt Q9VAN6 1-276, A210G;E212Q;R213C)
T1 sequence: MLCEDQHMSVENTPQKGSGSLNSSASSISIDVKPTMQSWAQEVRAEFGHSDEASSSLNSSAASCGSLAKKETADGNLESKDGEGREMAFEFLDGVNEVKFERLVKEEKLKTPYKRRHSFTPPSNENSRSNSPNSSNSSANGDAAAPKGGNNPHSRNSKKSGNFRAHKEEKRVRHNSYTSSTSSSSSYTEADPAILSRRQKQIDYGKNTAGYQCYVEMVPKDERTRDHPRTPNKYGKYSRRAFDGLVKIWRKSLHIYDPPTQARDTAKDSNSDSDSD

Drosophila SLBP 4S-4E = target: T2, Drosophila SLBP 4S-4E (UniProt Q9VAN6 1-276, S269E;S271E;S273E;S275E)
T2 sequence: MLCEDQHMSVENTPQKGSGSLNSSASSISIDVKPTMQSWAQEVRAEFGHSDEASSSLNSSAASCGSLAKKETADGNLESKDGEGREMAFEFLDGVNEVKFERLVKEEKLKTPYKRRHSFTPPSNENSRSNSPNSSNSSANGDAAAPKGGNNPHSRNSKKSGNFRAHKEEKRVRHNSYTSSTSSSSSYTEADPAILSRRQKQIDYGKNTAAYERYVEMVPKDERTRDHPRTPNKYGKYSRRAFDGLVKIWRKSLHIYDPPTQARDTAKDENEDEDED

Drosophila SLBP 4S-4A = target: T3, Drosophila SLBP 4S-4A (UniProt Q9VAN6 1-276, S269A;S271A;S273A;S275A)
T3 sequence: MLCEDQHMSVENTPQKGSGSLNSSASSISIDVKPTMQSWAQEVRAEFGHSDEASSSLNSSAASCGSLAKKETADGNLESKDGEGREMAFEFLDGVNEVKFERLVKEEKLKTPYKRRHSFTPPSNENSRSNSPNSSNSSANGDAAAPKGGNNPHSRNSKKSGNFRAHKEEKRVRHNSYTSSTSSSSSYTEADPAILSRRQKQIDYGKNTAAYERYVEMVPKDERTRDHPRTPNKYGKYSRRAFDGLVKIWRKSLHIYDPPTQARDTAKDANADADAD

Measured: binding result

B1: SL RNA (structured_RNA)
RNA: GUGCCAAAAAGGCUCUUUUCAGAGCCACCCA
binds: all assays above
